Data: patent US20040106569
Residue numbers refer to the chain shown, from its start. Marks after values point to notes of the source that are not given here.

B1: PKNbeta deltaN comprising amino acids 288-889 (protein)
chain: CEQLLTAVPGRSPAAALASSPSEGWLRTKAKHQRGRGELASEVLAVLKVDNRVVGQTGWGQVAEQSWDQTFVIPLERARELEIGVHWRDWRQLCGVAFLRLEDFLDNACHQLSLSLVPQGLLFAQVTFCDPVIERRPRLQRQERIFSKRRGQDFLRRSQMNLGMAAWGRLVMNLLPPCSSPSTISPPKGCPRTPTTLREASDPATPSNFLPKKTPLGEEMTPPPKPPRLYLPQEPTSEETPRTKRPHMEPRTRRGPSPPASPTRKPPRLQDFRCLAVLGRGHFGKVLLVQFKGTGKYYAIKALKKQEVLSRDEIESLYCEKRILEAVGCTGHPFLLSLLVCFQTSSHARFVTEFVPGGDLMMQIHEDVFPEPQARFYVACVVLGLQFLHEKKIIYRDLKLDNLLLDAQGFLKIADFGLCKEGIGFGDRTSTFCGTPEFLAPEVLTQEAYTQAVDWWALGVLLYEMLVGECPFPGDTEEEVFDCIVNMDAPYPGFLSVQGLEFIQKLLQKCPEKRLGAGEQDAEEIKVQPFFRTTNWQALLARTIQPPFVPTLCGPADLRYFEGEFTGLPPALTPPAPHSLLTARQQAAFRDFDFVSERFLEP
B2: full length PKNbeta KE588 mutant (protein)
chain: MEEGAPRQPGPSQWPPEDEKEVIRRAIQKELKIKEGVENLRRVATDRRHLGHVQQLLRSSNRRLEQLHGELRELHARILLPGPGPGPAEPVASGPRPWAEQLRARHLEALRRQLHVELKVKQGAENMTHTCASGTPKERKLLAAAQQMLRDSQLKVALLRMKISSLEASGSPEPGPELLAEELQHRLHVEAAVAEGAKNVVKLLSSRRTQDRKALAEAQAQLQESSQKLDLLRLALEQLLEQLPPAHPLRSRVTRELRAAVPGYPQPSGTPVKPTALTGTLQVRLLGCEQLLTAVPGRSPAAALASSPSEGWLRTKAKHQRGRGELASEVLAVLKVDNRVVGQTGWGQVAEQSWDQTFVIPLERARELEIGVHWRDWRQLCGVAFLRLEDFLDNACHQLSLSLVPQGLLFAQVTFCDPVIERRPRLQRQERIFSKRRGQDFLRRSQMNLGMAAWGRLVMNLLPPCSSPSTISPPKGCPRTPTTLREASDPATPSNFLPKKTPLGEEMTPPPKPPRLYLPQEPTSEETPRTKRPHMEPRTRRGPSPPASPTRKPPRLQDFRCLAVLGRGHFGKVLLVQFKGTGKYYAIEALKKQEVLSRDEIESLYCEKRILEAVGCTGHPFLLSLLVCFQTSSHARFVTEFVPGGDLMMQIHEDVFPEPQARFYVACVVLGLQFLHEKKIIYRDLKLDNLLLDAQGFLKIADFGLCKEGIGFGDRTSTFCGTPEFLAPEVLTQEAYTQAVDWWALGVLLYEMLVGECPFPGDTEEEVFDCIVNMDAPYPGFLSVQGLEFIQKLLQKCPEKRLGAGEQDAEEIKVQPFFRTTNWQALLARTIQPPFVPTLCGPADLRYFEGEFTGLPPALTPPAPHSLLTARQQAAFRDFDFVSERFLEP
B3: full length PKNbeta with the TA mutation at amino acid 718 (protein)
chain: B2 chain with E588K, T718A
B4: full length wildtype PKNbeta molecule (889 amino acids) (protein)
chain: B2 chain with E588K

What was measured:
[1] = biological target: GST-GSK3 fusion protein (Cell Signaling Technology)

| Protein | Activity (phosphorylation of MPB) (myelin basic protein) | non-radioactive in vitro kinase assay (FIG. 11A) [1] | radioactive in vitro kinase assay, 32P incorporation by autoradiography (FIG. 11B) (myelin basic protein) | non-radioactive in vitro kinase assay, phosphorylated substrate detected by Western blot [1] |
| --- | --- | --- | --- | --- |
| B1 | -* | – | – | – |
| B2 | – | no (FIG. 11A) or background activity of unspecific kinases (FIG. 11B) were detected with the full length KE and full length TA mutatant proteinss | background activity of unspecific kinases (FIG. 11B) | – |
| B3 | – | no (FIG. 11A) or background activity of unspecific kinases (FIG. 11B) were detected with the full length KE and full length TA mutatant proteinss | background activity of unspecific kinases (FIG. 11B) | – |
| B4 | ++* | – | the full length wildtype protein kinase N beta as well as the kinase domain show activity | Only the full length wildtype protein kinase N beta or the kinase domain as defined in example 9 were suitable to phosphorylate the substrate |
